Assay results reported in US20080260713.

Target: T1, human regulatory myosin light chain, his-tagged
T1 chain: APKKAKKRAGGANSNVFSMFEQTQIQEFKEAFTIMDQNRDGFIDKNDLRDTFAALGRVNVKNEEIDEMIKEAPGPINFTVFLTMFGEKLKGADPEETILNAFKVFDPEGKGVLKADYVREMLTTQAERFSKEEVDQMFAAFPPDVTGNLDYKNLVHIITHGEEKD

B1: recombinant human neukinase, His-tagged (protein)
chain: MSGTSKESLGHGGLPGLGKTCLTTMDTKLNMLNEKVDQLLHFQEDVTEKLQSMCRDMGHLERGLHRLEASRAPGPGGADGVPHIDTQAGWPEVLELVRAMQQDAAQHGARLEALFRMVAAVDRAIALVGATFQKSKVADFLMQGRVPWRRGSPGDSPEENKERVEEEGGKPKHVLSTSGLQSDAREPGEESQKADVLEGTAERLPPIRASGLGADPAQAVVSPGQGDGVPGPAQAFPGHLPLPTKVEAKAPETPSENLRTGLELAPAPGRVNVVSPSLEVAPGAGQGASSSRPDPEPLEEGTRLTPGPGPQCPGPPGLPAQARATHSGGETPPRISIHIQEMDTPGEMLMTGRGSLGPTLTTEAPAAAQPGKQGPPGTGRCLQAPGTEPGEQTPEGARELSPLQESSSPGGVKAEEEQRAGAEPGTRPSLARSDDNDHEVGALGLQQGKSPGAGNPEPEQDCAARAPVRAEAVRRMPPGAEAGSVVLDDSPAPPAPFEHRVVSVKETSISAGYEVCQHEVLGGGRFGQVHRCTEKSTGLPLAAKIIKVKSAKDREDVKNEINIMNQLSHVNLIQLYDAFESKHSCTLVMEYVDGGELFDRITDEKYHLTELDVVLFTRQICEGVHYLHQHYILHLDLKPENILCVNQTGHQIKIIDFGLARRYKPREKLKVNFGTPEFLAPEVVNYEFVSFPTDMWSVGVITYMLLSGLSPFLGETDAETMNFIVNCSWDFDADTFEGLSEEAKDFVSRLLVKEKSCRMSATQCLKHEWLNNLPAKASRSKTRLKSQLLLQKYIAQRKWKKHFYVVTAANRLRKFPTSP
- rate of decrease of NADH absorbance at 340 nm (PK/LDH-coupled assay; 90 uM RLC, 1 uM CaM, 0.3 uM CaCl2, 100 nM neukinase): ΔOD/min/nmol nukinase=0.0152/min/nmol neukinase
